Source: article PMC6901573 (Scientific Reports, 2019)

Key:
[1] = biological target: T1, IsdB (NEAT1 and NEAT2 domains connected by the helical linker), wild type (S. aureus, UniProt Q8NX66 125-485); assay: SPR; conditions: both partners purified
[2] = biological target: T1, IsdB (NEAT1 and NEAT2 domains connected …); assay: SPR; conditions: both partners purified; remark: listed apart in the source

T1 sequence (Q8NX66 125-485): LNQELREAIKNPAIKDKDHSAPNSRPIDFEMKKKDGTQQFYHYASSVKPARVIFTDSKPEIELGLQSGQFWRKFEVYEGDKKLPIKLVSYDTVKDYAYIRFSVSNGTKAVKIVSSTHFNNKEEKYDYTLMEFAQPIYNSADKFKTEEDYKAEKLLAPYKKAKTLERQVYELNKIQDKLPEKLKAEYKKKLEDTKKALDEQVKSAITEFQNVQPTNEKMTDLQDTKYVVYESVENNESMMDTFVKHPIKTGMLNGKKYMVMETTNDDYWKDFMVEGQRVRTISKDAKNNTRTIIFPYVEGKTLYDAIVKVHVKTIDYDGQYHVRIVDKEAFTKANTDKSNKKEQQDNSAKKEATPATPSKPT

B1: Human hemoglobin A, oxidized form (methemoglobin, MetHb) (complex)
chain 1: not shown
chain 2: not shown
- KD of the first, reversible step of the two-state irreversible model [1]: 70 ± 6 nM
- KD of the first, reversible step of the two-state irreversible model [2]: 69 ± 1 nM

B2: Human alpha-semihemoglobin, oxidized (met) form (complex)
chain 1: not shown
chain 2: not shown
- KD of the first, reversible step of the two-state irreversible model [1]: 108 ± 11 nM

B3: Human beta-semihemoglobin, oxidized (met) form (complex)
chain 1: not shown
chain 2: not shown
- KD of the first, reversible step of the two-state irreversible model [1]: 91 ± 5 nM
